Test results from article PMC8903895.

Target: dengue virus envelope protein (dengue virus serotype 2 strain New Guinea C)
Experiment: proximity ligation

“dengue virus prM protein (natural protein)” was tested, and the PLA foci per cell (WT cells) (foci per cell) was 26, the PLA foci per cell (YBX1 KO1 cells) (foci per cell) was 58 and the PLA foci per cell (YBX1 KO2 cells) (foci per cell) was 27.
In the case of “dengue virus capsid protein (natural protein)”, the PLA foci per cell (WT cells) (foci per cell) is reported as 11, the PLA foci per cell (YBX1 KO1 cells) (foci per cell) is reported as 5 and the PLA foci per cell (YBX1 KO2 cells) (foci per cell) is reported as 7.
